Reference: IntAct's records for PubMed 31515488

B1: Filamin-binding LIM protein 1 (Homo sapiens), Q8WUP2 (parent)
chain: MASKPEKRVASSVFITLAPPRRDVAVAEEVRQAVCEARRGRPWEAPAPMKTPEAGLAGRPSPWTTPGRAAATVPAAPMQLFNGGCPPPPPVLDGEDVLPDLDLLPPPPPPPPVLLPSEEEAPAPMGASLIADLEQLHLSPPPPPPQAPAEGPSVQPGPLRPMEEELPPPPAEPVEKGASTDICAFCHKTVSPRELAVEAMKRQYHAQCFTCRTCRRQLAGQSFYQKDGRPLCEPCYQDTLERCGKCGEVVRDHIIRALGQAFHPSCFTCVTCARCIGDESFALGSQNEVYCLDDFYRKFAPVCSICENPIIPRDGKDAFKIECMGRNFHENCYRCEDCRILLSVEPTDQGCYPLNNHLFCKPCHVKRSAAGCC
partner: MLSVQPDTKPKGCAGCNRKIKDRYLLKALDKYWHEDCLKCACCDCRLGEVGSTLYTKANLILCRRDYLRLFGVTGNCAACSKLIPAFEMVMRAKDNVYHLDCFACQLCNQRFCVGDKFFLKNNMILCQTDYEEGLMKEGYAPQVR
B2: Protein FAM9B (Homo sapiens), Q8IZU0 (parent)
chain: MAAWGKKHAGKDPVRDECEERNRFTETREEDVTDEHGEREPFAETDEHTGANTKKPEDTAEDLTAKRKRMKMDKTCSKTKNKSKHALRKKQLKRQKRDYIHSLKLLNVLEEYITDEQKEEEEEEGEEEELIRIFQEQQKKWQQYRSVRRERLKEMKLLRDQFVKALEDFEDLCDRVFSDEDSELDN
partner: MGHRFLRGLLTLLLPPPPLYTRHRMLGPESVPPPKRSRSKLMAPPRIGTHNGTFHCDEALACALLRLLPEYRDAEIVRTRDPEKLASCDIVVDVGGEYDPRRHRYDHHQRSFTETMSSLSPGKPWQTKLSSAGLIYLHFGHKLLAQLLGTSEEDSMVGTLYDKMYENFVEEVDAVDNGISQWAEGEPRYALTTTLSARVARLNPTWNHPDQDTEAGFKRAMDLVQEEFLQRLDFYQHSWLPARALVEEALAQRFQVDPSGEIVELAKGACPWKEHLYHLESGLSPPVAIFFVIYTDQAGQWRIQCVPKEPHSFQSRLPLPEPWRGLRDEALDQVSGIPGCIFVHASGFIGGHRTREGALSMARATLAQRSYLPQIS
B3: Protein FAM9B (Homo sapiens), Q8IZU0 (parent)
chain: B2 chain
partner: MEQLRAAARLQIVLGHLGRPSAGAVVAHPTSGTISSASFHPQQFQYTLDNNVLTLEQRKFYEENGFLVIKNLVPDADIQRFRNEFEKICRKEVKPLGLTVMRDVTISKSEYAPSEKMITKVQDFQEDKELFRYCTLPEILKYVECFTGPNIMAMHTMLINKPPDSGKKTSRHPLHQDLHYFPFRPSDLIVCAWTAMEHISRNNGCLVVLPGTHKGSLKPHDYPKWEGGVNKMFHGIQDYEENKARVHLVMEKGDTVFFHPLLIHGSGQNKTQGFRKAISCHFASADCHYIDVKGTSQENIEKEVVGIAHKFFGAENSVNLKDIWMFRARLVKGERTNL
B4: Tektin-4 (Homo sapiens), Q8WW24 (parent)
chain: MAQTVPPCELPCKEYDVARNTGAYTSSGLATASFRTSKYLLEEWFQNCYARYHQAFADRDQSERQRHESQQLATETQALAQRTQQDSTRTVGERLQDTHSWKSELQREMEALAAETNLLLAQKQRLERALDATEVPFSITTDNLQCRERREHPNLVRDHVETELLKEAELIRNIQELLKRTIMQAVSQIRLNREHKETCEMDWSDKMEAYNIDETCGRHHSQSTEVQAHPYSTTFQESASTPETRAKFTQDNLCRAQRERLASANLRVLVDCILRDTSEDLRLQCDAVNLAFGRRCEELEDARYKLHHHLHKTLREITDQEHNVAALKQAIKDKEAPLHVAQTRLYLRSHRPNMELCRDAAQFRLLSEVEELNMSLTALREKLLEAEQSLRNLEDIHMSLEKDIAAMTNSLFIDRQKCMAHRTRYPTILQLAGYQ
partner: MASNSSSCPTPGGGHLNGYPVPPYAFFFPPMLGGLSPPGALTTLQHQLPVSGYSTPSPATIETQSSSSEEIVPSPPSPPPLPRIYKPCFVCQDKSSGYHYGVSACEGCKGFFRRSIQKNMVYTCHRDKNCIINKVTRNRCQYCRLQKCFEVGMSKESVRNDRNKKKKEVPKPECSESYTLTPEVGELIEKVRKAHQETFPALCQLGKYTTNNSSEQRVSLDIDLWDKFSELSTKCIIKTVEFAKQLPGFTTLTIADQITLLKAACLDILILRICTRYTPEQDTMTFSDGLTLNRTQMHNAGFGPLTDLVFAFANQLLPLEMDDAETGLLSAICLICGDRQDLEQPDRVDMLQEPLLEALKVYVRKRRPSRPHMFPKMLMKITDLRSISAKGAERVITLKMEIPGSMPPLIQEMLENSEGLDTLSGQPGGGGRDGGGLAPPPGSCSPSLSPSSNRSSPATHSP

Variants of: B1
Details: with lmo3_human LMO3, Q8TAP4

| Variant | effect of a mutation on the interaction |
| --- | --- |
| MASKPEKRVASSVFITLAPPRRDVAVAEEVRQAVCEARRGRPWEAPAPMKTPEAGLAGRPSPWTTPGRAAATVPAAPMQLFNGGCPPPPPVLDGEDVLPDLDLLPPPPPPPPVLLPSEEEAPAPMGASLIADLEQLHLSPPPPPPQAPAEGPSVQPGPLRPMEEELPPPPAEPVEKGASTDICAFCHKTVSPRELAVEAMKRQCHAQCFTCRTCRRQLAGQSFYQKDGRPLCEPCYQDTLERCGKCGEVVRDHIIRALGQAFHPSCFTCVTCARCIGDESFALGSQNEVYCLDDFYRKFAPVCSICENPIIPRDGKDAFKIECMGRNFHENCYRCEDCRILLSVEPTDQGCYPLNNHLFCKPCHVKRSAAGCC [Y204C] | disrupting interaction strength |

Variants of: B2
Details: with myg1_human MYG1, Q9HB07

| Variant | effect of a mutation on the interaction |
| --- | --- |
| R23H | with no effect |

Variants of: B3
Details: with pahx_human PHYH

| Variant | effect of a mutation on the interaction |
| --- | --- |
| R23H | with no effect |

Variants of: B4
Details: with rara_human RARA

| Variant | effect of a mutation on the interaction |
| --- | --- |
| MAQTVPPCELPCKEYDVARNTGAYTSSGLATASFRTSKYLLEEWFQNCYARYHQAFADRDQSERQRHESQQLATETQALAQRTQQDSTRTVGERLQDTHSWKSELQREMEALAAETNLLLAQKQRLERALDATEVPFSITTDNLQCRERREHPNLVRDHVETELLKEAELIRNIQELLKRTIMQAVSQIRLNREHKETCEMDWSDKMEAYNIDETCGRHHSQSTEVQAHPYSTTFQESASTPETRAKFTQDNLCRAQRERLASANLRVLVDCILRDTSEDLRLQCDAVNLAFGRRCEELEDARYKLHHHLHKTLREITDQEHNVAALKQAIKDKEAPLHVAQTRLYLRSHRPNMELCRDAAQFRLLSEVEELNMSLTALREKLLEAEQSLRNLEDIHMSLEKNIAAMTNSLFIDRQKCMAHRTRYPTILQLAGYQ [D403N] | with no effect |
| MAQTVPPCELPCKEYDVARNTGAYTSSGLATASFRTSKYLLEEWFQNCYARYHQAFADRDQSERQRHESQQLATETQALAQRTQQDSTRTVGERLQDTHSWKSELQREMEALAAETNLLLAQKQRLERALDATEVPFSITTDNLQCRERREHPNLVRDHVETELLKEAELIRNIQELLKRTIMQAVSQIRLNREHKETCEMDWSDKMEAYNIDETCGRHHSQSTEVQAHPYSTTFQESASTPETRAKFTQDNLCRAQRERLASANLRVLVDCILRDTSEDLRLQCDAVNLAFGRRCEELEDARYKLHHHLHKTLREITDQEHNVAALKQAIKDKEAPLHVAQTRLYLRSHRPNMELCRDAAQFRLLSEVEELNMSLTALREKLLEAEQSLRNLEDIHMSLEKDIAAMTKSLFIDRQKCMAHRTRYPTILQLAGYQ [N409K] | with no effect |
| MAQTVPPCELPCKEYDVARNTGAYTSSGLATASFRTSKYLLEEWFQNCYARYHQAFADRDQSERQRHESQQLATETQALVQRTQQDSTRTVGERLQDTHSWKSELQREMEALAAETNLLLAQKQRLERALDATEVPFSITTDNLQCRERREHPNLVRDHVETELLKEAELIRNIQELLKRTIMQAVSQIRLNREHKETCEMDWSDKMEAYNIDETCGRHHSQSTEVQAHPYSTTFQESASTPETRAKFTQDNLCRAQRERLASANLRVLVDCILRDTSEDLRLQCDAVNLAFGRRCEELEDARYKLHHHLHKTLREITDQEHNVAALKQAIKDKEAPLHVAQTRLYLRSHRPNMELCRDAAQFRLLSEVEELNMSLTALREKLLEAEQSLRNLEDIHMSLEKDIAAMTNSLFIDRQKCMAHRTRYPTILQLAGYQ [A80V] | disrupting interaction strength |
| MAQTVPPCELPCKEYDVARNTGAYTSSGLATASFRTSKYLLEEWFQNCYARYHQAFADRDQSERQRHESQQLATETQALAQRTQQDSTRTVGERLQDTHSWKSELQREMEALAAETNLLLAQKQRLERALDATEVPFSITTDNLQCRERREHPNLVRDHVETELLKEAELIRNIQELLKRTIMQAVSQIRLNREHKETCEMDWSDKMEAYNIDETCGRHHSQSTEVQAHPYSTTFQESASTPETRAKFTQDNLCRAQRERLASANLRVLVDCILRDTSEDLRLQCDAVNLAFGRRCEELEDARYKLHHHLHKTLREITDQEHNVAALKQAIKDKEAPLHVAQTRLYLRSHRPNMELCRDAAQFRLLSEVEELNMSLTALREKLLEAEQSLRNLEDIHMSLEKDTAAMTNSLFIDRQKCMAHRTRYPTILQLAGYQ [I404T] | disrupting interaction strength |
| MAQTVPPCELPCKEYDVARNTGAYTSSGLATASFRTSKYLLEEWFQNCYARYHQAFADRDQSERQRHESQQLATETQALAQRTQQDSTRTVGERLQDTHSWKSELQREMEALAAETNLLLAQKQRLERALDATEVPFSITTDNLQCRERREHPNLVRDHVETELLKEAELIRNIQELLKRTIMQAVSQIRLNREHKETCEMDWSDKMEAYNIDETCGRHHSQSTEVQAHPYSTTFQESASTPETRAKFTQDNLCRAQRERLASANLRVLVDSILRDTSEDLRLQCDAVNLAFGRRCEELEDARYKLHHHLHKTLREITDQEHNVAALKQAIKDKEAPLHVAQTRLYLRSHRPNMELCRDAAQFRLLSEVEELNMSLTALREKLLEAEQSLRNLEDIHMSLEKDIAAMTNSLFIDRQKCMAHRTRYPTILQLAGYQ [C272S] | disrupting interaction strength |
| MAQTVPPCELPCKEYDVARNTGAYTSSGLATASFRTSKYLLEEWFQNCYARYHQAFADRDQSEWQRHESQQLATETQALAQRTQQDSTRTVGERLQDTHSWKSELQREMEALAAETNLLLAQKQRLERALDATEVPFSITTDNLQCRERREHPNLVRDHVETELLKEAELIRNIQELLKRTIMQAVSQIRLNREHKETCEMDWSDKMEAYNIDETCGRHHSQSTEVQAHPYSTTFQESASTPETRAKFTQDNLCRAQRERLASANLRVLVDCILRDTSEDLRLQCDAVNLAFGRRCEELEDARYKLHHHLHKTLREITDQEHNVAALKQAIKDKEAPLHVAQTRLYLRSHRPNMELCRDAAQFRLLSEVEELNMSLTALREKLLEAEQSLRNLEDIHMSLEKDIAAMTNSLFIDRQKCMAHRTRYPTILQLAGYQ [R64W] | with no effect |
| MAQTVPPCELPCKEYDVARNTGAYTSSGLATASFRTSKYLLEEWFQNCYARYHQAFADRDQSERQRHESQQLATETQALAQRTQQDSTRTVGERLQDTHSWKSELQREMEALAAETNLLLAQKQRLERALDATEVPFSITTDNLQCRERREHPNLVRDHVETELLKEAELIRNIQELLKRTIMQAVSQIRLNREHKETCEMDWSDKMEAYNIDETCGRHHSQSTEVQAHPYSTTFQESASTPETRAKFTQDNLCRAQRERLASANLRVLVDCILRDTSEDLRLQCDAVNLAFGRRCEELEDARYKLHHHLHKTLREITDQEHNVAALKQAIKDKEAPLHVAQTRLYLRSHRPNMELCRDAAQFRLLSEVEELNTSLTALREKLLEAEQSLRNLEDIHMSLEKDIAAMTNSLFIDRQKCMAHRTRYPTILQLAGYQ [M374T] | with no effect |
